Tests used:
[1] = Fluorescence Correlation Spectroscopy (FCS) analysis of the fluoromodules; assay type: physicochemical
[2] = Affinity measurements (Kd, fluorescence titration of Gemini-561 with RNA); assay type: binding; details: for Kd: 40 mM potassium phosphate pH 7.5, 100 mM KCl, 1 mM MgCl2, 0.05% Tween 20, 100 nM (SRB-2) or 25 nM (4C10) Gemini-561
Experimental: The Kd value can be obtained by measuring the fluorescence intensity of the fluorophore in aqueous medium with increasing amount of the said nucleic acid. The plot of the fluorescence intensity versus the concentration of the said nucleic acid will provide the Kd value after fitting with the proper equation (example: Hill equation).
The fluorescence was measured on microplate reader (ex/em 580/620 nm, SpectraMax iD3, Molecular Devices).

[3] = Fluorescence measurement on purified RNA (Gemini-561 activation capacity); assay type: biochemical; details: 500 nM RNA, 50 nM Gemini-561, ex/em 560/600 nm
Experimental: FIG. 6A represents Gemini-561 activation capacity of the parental SRB-2 and the evolved 4C10 variant. 500 nM of RNAs were incubated with 50 nM of Gemini-561 and the fluorescence was measured at À ex/em=560/600 nm.
FIG. 7A represents the fluorogenic capacity of SRB-2 and its evolved forms 4C10 and o-Coral. 500 nM of RNAS were incubated With 50 nM of Gemini-561 and the fluorescence was measured at X ex/em=560/600 nm. The values are the mean of 3 independent experiments, each measurement being shown as an open circle. The error bars correspond to ±1 standard deviation.
FIG. 10B represents Contribution of the dimerization and 736 the mutations to o-Coral functionality. SRB-2 aptamer was used as scaffold either in its monomeric 737 (m) or dimeric (d) form containing o-Coral linker. Indicated mutations were then implemented and the 738 different constructs tested as above.
FIG. 10C represents the identification of interacting regions. […]
1 μM purified RNA was heated for 1 min at 90° C. and cooled at 4° C. for 1 min. […] The mixture was then incubated for 10 min at 25° C. prior to measuring the fluorescence at 25° C. 011 a real-time thermocycler (ex/em 575/602 nm, MX 3005P, Agilent) or on microplate reader (ex/em 560/600 nm, SpectraMax iD3, Molecular Devices).

In the case of `CN(C)c1ccc2c(-c3ccccc3C(=O)[O-])c3ccc(N(C)C)cc3[o+]c2c1` [Tetramethylrhodamine], the “Size (hydrodynamic diameter of fluorescent specie)” value ([1]; fluorogen 200 nM, aptamer 1 μM) is reported as 1 nm, the “τcorr (correlation time)” value ([1]; fluorogen 200 nM, aptamer 1 μM) is reported as 0.032 ms and the “Brightness with respect to one molecule of the standard” value ([1]; standard tetramethylrhodamine for o-Coral (532 nm excitation), fluorescein for Broccoli and Corn) is reported as 1.

B1: SRB-2: parental RNA aptamer previously developed to interact with sulforhodamine B (nucleic acid)
chain: GGGAGACAGCUAGAGUACGGAACCUCGCUUCGGCGAUGAUGGACAGGUUCCGACACGAGCACAGUGUAC
modifications: listed as RNA, chemistry not given here
With B1 the Kd [2] was roughly 441 nM and the “capacity to turn on Gemini-561 fluorescence” value [3] was “poor”.

B2: 4C10: duplicated SRB-2 variant RNA aptamer displaying 6 point mutations (nucleic acid)
chain: AGAACCCCGCUUCGGCGGUGAUGGAGAGGCGCAAGGUUAACCGCCUCAGGUUCCNNNNNNNNNNNNNNNNNNNNNNNNNNNNNNNNNNNNNNNNNNNNNNNNNNNNNNNNNNNNGGGGCCUCGCUUCGGCGAUGAUGGAGAGGCGCAAGGUUAACCGCCUCAGGUUCU
modifications: fluorophore binding aptamers; (55)..(72) N represents A, U, G or C; (73)..(114) N represents A, U, G or C or is absent
notes: duplicated SRB-2 variant RNA aptamer displaying 6 point mutations
In the case of B2, the Kd [2] is reported as roughly 73 nM and the “capacity to turn on Gemini-561 fluorescence” value [3] is reported as “an order of magnitude more fluorescent”.

B3: o-Coral: light-up RNA aptamer, 4C10 derivative with 6-nucleotide long linker (nucleic acid)
chain: GGGAGACAGCUAGAGUACAGGAACCCCGCUUCGGCGGUGAUGGAGAGGCGCAAGGUUAACCGCCUCAGGUUCCGGUGACGGGGCCUCGCUUCGGCGAUGAUGGAGAGGCGCAAGGUUAACCGCCUCAGGUUCUGACACGAGCACAGUGUAC
modifications: fluorophore binding aptamers
notes: light-up RNA aptamer, 4C10 derivative with 6-nucleotide long linker
With B3 the “fluorogenicity and affinity for Gemini-561 compared with 4C10” value ([2]; 6-nucleotide linker derivative of 4C10) was “conserved both fluorogenicity and affinity”.
